Experimental data taken from patent publication US8889619B2 (Beijing Dongfang Biotech Co., Ltd., priority 2010, dated 2014).

System: KK-Ay diabetic model mice
Experiment: Long-term administration experiment, KK-Ay diabetic model mice
Format: in vivo, mouse
Conditions: fast blood glucose decrease vs blank control relative to fusion protein of example 2; 1 mg/Kg twice per week, after 2 weeks, fasted 6 h
Protocol: The drug is given twice per week, and the mice are fasted for 6 h each Wednesday and tested for fast blood glucose, meanwhile their food intake and weight variation are recorded. […] Specifically, long term administration is conducted according to the following protocol: the KK-Ay diabetic model mice are randomized into blank control group (injected only with PBS) and experimental group (injected with 1 mg/Kg of the fusion protein in Table 3). The drug is given twice per week; after 2 weeks, the mice are fasted for 6 h and tested for fasting blood glucose, and the blood glucose decrease of one experimental group is calculated by subtracting the fasting blood glucose of the experimental group from that of the blank control group.

Molecule | Relative bioactivity
SEQ ID NO: 22: fusion protein: peptide hormone SEQ ID NO: 1 (Exendin-4), linker SEQ ID NO: 3, IgG4-Fc | 75%
SEQ ID NO: 15: fusion protein: peptide hormone SEQ ID NO: 16 (differs from SEQ ID NO:2 in 3 sites), linker SEQ ID NO: 3, IgG2-Fc (protein, The sequence is synthesized) HTEGTFTSDASSYLEGQACKEFIAWLVKGRGGGGAGGGGVECPPCPAPPVAGPSVFLFPPKPKDTLMISRTPEVTCVVVDVSHEDPEVQFNWYVDGVEVHNAKTKPREEQFNSTFRVVSVLTVVHQDWLNGKEYKCKVSNKGLPAPIEKTISKTKGQPREPQVYTLPPSREEMTKNQVSLTCLVKGFYPSDIAVEWESNGQPENNYKTTPPMLDSDGSFFLYSKLTVDKSRWQQGNVFSCSVMHEALHNHYTQKSLSLSPGK | 94%
SEQ ID NO: 17: fusion protein: peptide hormone SEQ ID NO: 18 (differs from SEQ ID NO:2 in 3 sites), linker SEQ ID NO: 3, IgG2-Fc (protein, The sequence is synthesized) HTEGTFTSDLSSYLEGQASKEFIAWLVKGRGGGGAGGGGVECPPCPAPPVAGPSVFLFPPKPKDTLMISRTPEVTCVVVDVSHEDPEVQFNWYVDGVEVHNAKTKPREEQFNSTFRVVSVLTVVHQDWLNGKEYKCKVSNKGLPAPIEKTISKTKGQPREPQVYTLPPSREEMTKNQVSLTCLVKGFYPSDIAVEWESNGQPENNYKTTPPMLDSDGSFFLYSKLTVDKSRWQQGNVFSCSVMHEALHNHYTQKSLSLSPGK | 93%
SEQ ID NO: 21: fusion protein: peptide hormone SEQ ID NO: 2 (GLP-1 (7-36) NH2), linker SEQ ID NO: 3, IgG2-Fc (protein, The sequence is synthesized) HAEGTFTSDVSSYLEGQAAKEFIAWLVKGRGGGGAGGGGVECPPCPAPPVAGPSVFLFPPKPKDTLMISRTPEVTCVVVDVSHEDPEVQFNWYVDGVEVHNAKTKPREEQFNSTFRVVSVLTVVHQDWLNGKEYKCKVSNKGLPAPIEKTISKTKGQPREPQVYTLPPSREEMTKNQVSLTCLVKGFYPSDIAVEWESNGQPENNYKTTPPMLDSDGSFFLYSKLTVDKSRWQQGNVFSCSVMHEALHNHYTQKSLSLSPGK | 91%
SEQ ID NO: 19: fusion protein: peptide hormone SEQ ID NO: 20 (differs from SEQ ID NO:2 in 2 sites), linker SEQ ID NO: 3, IgG2-Fc (protein, The sequence is synthesized) HAEGTFTSDLSSYLEGQAIKEFIAWLVKGRGGGGAGGGGVECPPCPAPPVAGPSVFLFPPKPKDTLMISRTPEVTCVVVDVSHEDPEVQFNWYVDGVEVHNAKTKPREEQFNSTFRVVSVLTVVHQDWLNGKEYKCKVSNKGLPAPIEKTISKTKGQPREPQVYTLPPSREEMTKNQVSLTCLVKGFYPSDIAVEWESNGQPENNYKTTPPMLDSDGSFFLYSKLTVDKSRWQQGNVFSCSVMHEALHNHYTQKSLSLSPGK | 92%
SEQ ID NO: 13: fusion protein: peptide hormone SEQ ID NO: 14 (GLP-1A8G), linker SEQ ID NO: 3, IgG2-Fc (protein, The sequence is synthesized) AAEGTFTGDVSSYLEGQAAKEFIAWLVKGRGGGGGAGGGGVECPPCPAPPVAGPSVFLFPPKPKDTLMISRTPEVTCVVVDVSHEDPEVQFNWYVDGVEVHNAKTKPREEQFNSTFRVVSVLTVVHQDWLNGKEYKCKVSNKGLPAPIEKTISKTKGQPREPQVYTLPPSREEMTKNQVSLTCLVKGFYPSDIAVEWESNGQPENNYKTTPPMLDSDGSFFLYSKLTVDKSRWQQGNVFSCSVMHEALHNHYTQKSLSLSPGK | 95%
SEQ ID NO: 5: fusion protein: peptide hormone SEQ ID NO: 6 (differs from SEQ ID NO:1 in 2 sites), linker SEQ ID NO: 3, IgG2-Fc (protein, The sequence is synthesized) HTEGTFTSDASKQMEEEAVRLFIEWLKDGGPSSGAPPPSGGGGAGGGGVECPPCPAPPVAGPSVFLFPPKPKDTLMISRTPEVTCVVVDVSHEDPEVQFNWYVDGVEVHNAKTKPREEQFNSTFRVVSVLTVVHQDWLNGKEYKCKVSNKGLPAPIEKTISKTKGQPREPQVYTLPPSREEMTKNQVSLTCLVKGFYPSDIAVEWESNGQPENNYKTTPPMLDSDGSFFLYSKLTVDKSRWQQGNVFSCSVMHEALHNHYTQKSLSLSPGK | 99%
SEQ ID NO: 11: fusion protein: peptide hormone SEQ ID NO: 12 (differs from SEQ ID NO:1 in 6 sites), linker SEQ ID NO: 3, IgG2-Fc (protein, The sequence is synthesized) HAEGTFTSDASLTYEEEACRLFIEWLKDGGPSSGAPPPSGGGGAGGGGVECPPCPAPPVAGPSVFLFPPKPKDTLMISRTPEVTCVVVDVSHEDPEVQFNWYVDGVEVHNAKTKPREEQFNSTFRVVSVLTVVHQDWLNGKEYKCKVSNKGLPAPIEKTISKTKGQPREPQVYTLPPSREEMTKNQVSLTCLVKGFYPSDIAVEWESNGQPENNYKTTPPMLDSDGSFFLYSKLTVDKSRWQQGNVFSCSVMHEALHNHYTQKSLSLSPGK | 96%
SEQ ID NO: 7: fusion protein: peptide hormone SEQ ID NO: 8 (differs from SEQ ID NO:1 in 3 sites), linker SEQ ID NO: 3, IgG2-Fc (protein, The sequence is synthesized) HTEGTFTSDASLQMEEEAVRLFIEWLKDGGPSSGAPPPSGGGGAGGGGVECPPCPAPPVAGPSVFLFPPKPKDTLMISRTPEVTCVVVDVSHEDPEVQFNWYVDGVEVHNAKTKPREEQFNSTFRVVSVLTVVHQDWLNGKEYKCKVSNKGLPAPIEKTISKTKGQPREPQVYTLPPSREEMTKNQVSLTCLVKGFYPSDIAVEWESNGQPENNYKTTPPMLDSDGSFFLYSKLTVDKSRWQQGNVFSCSVMHEALHNHYTQKSLSLSPGK | 98%
SEQ ID NO: 9: fusion protein: peptide hormone SEQ ID NO: 10 (differs from SEQ ID NO:1 in 4 sites), linker SEQ ID NO: 3, IgG2-Fc (protein, The sequence is synthesized) HAEGTFTSDASLTMEEEAVRLFIEWLKDGGPSSGAPPPSGGGGAGGGGVECPPCPAPPVAGPSVFLFPPKPKDTLMISRTPEVTCVVVDVSHEDPEVQFNWYVDGVEVHNAKTKPREEQFNSTFRVVSVLTVVHQDWLNGKEYKCKVSNKGLPAPIEKTISKTKGQPREPQVYTLPPSREEMTKNQVSLTCLVKGFYPSDIAVEWESNGQPENNYKTTPPMLDSDGSFFLYSKLTVDKSRWQQGNVFSCSVMHEALHNHYTQKSLSLSPGK | 97%
